± gives the standard deviation of the averaged measurements.
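Further: PSI is a weighted mean of sequencing reads over stability bins, variants kept only with over 10 reads, mCherry proximal and sfGFP distal, peptide attached via GGGS linker.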

For the data set, the system named is Saccharomyces cerevisiae. Nature of the data set: protein stability index of tFT-peptide fusion (C-terminal peptide) (PSI (0-1 scale)); higher = more stable (slower turnover). As to conditions: genetic background: wild type; temperature: 30 C.
Turning to LDVASTPPLSTL, the protein stability index was found to be 0.704 ± 0.023.
Sequence LDVCDGVSGVRS yielded a protein stability index of 0.647 ± 0.035.
Then LDYDTTNSMWLS, with 0.586 ± 0.09; and LECLSRGWSIYC, with 0.541 ± 0.05; and LEDGDRVYQVTI, with 0.655 ± 0.012.
To LEEGLYQQEDIR belongs 0.722 ± 0.076; to LEFEIYHSECTV, 0.685 ± 0.088.
To LEFMTENSCACV belongs 0.652 ± 0.033; to LEGGVREMRGDG, 0.641 ± 0.053.
Regarding LEPHEIKERRPL, the protein stability index was determined as 0.721 ± 0.066.
Then LEQNCYYGEFSS, with 0.665 ± 0.035.
To LETEVDIYWLYR belongs 0.605 ± 0.048; to LEVHQGYLSSCH, 0.676 ± 0.12; to LFALSVHTHPYP, 0.73 ± 0.024.
To LFDRRDTSTLLL belongs 0.707 ± 0.032; to LFENNGIKCHKR, 0.683 ± 0.013; to LFFGVEWWRFEG, 0.5604 ± 0.0023.
As for LFFLFSPFSRLP, the protein stability index turned out to be 0.786 ± 0.089.
Then LFGAGGGGVEVG, with 0.672 ± 0.14; and LFGPRCTSSSAV, with 0.689 ± 0.015.
To LFGSMGVLGIGR belongs 0.672 ± 0.061.
Then LFIGKEGWVACL, with 0.562 ± 0.019; and LFIYSMKRFILE, with 0.631 ± 0.052; and LFKKVGGRSLVW, with 0.6813 ± 0.0036.
Take LFLAPFRLVLGV: the protein stability index amounted to 0.518 ± 0.01.
Then LFLLSLLDWGFR, with 0.661 ± 0.072; and LFLPPLFRRSPF, with 0.684 ± 0.018; and LFLWRFPSPFRA, with 0.661 ± 0.036.
To LFPCPLRPGCLP belongs 0.699 ± 0.099; to LFPLAPRRLAPP, 0.628 ± 0.069; to LFPLPHPLPVSL, 0.6146 ± 0.0053.
For LFPPPPPSPRCL, the protein stability index worked out at 0.637 ± 0.055.
Then LFRPFATALFPL, with 0.747 ± 0.066; and LFRWLLRLVISH, with 0.608 ± 0.021.
In the case of LFSLPPPSPPPR, the protein stability index is 0.694 ± 0.03.
Take LFTPLLVPYPTP: the protein stability index was determined as 0.522 ± 0.0028.
To LFVYSSVALSSQ belongs 0.59301 ± 0.00049; to LFYFFGKRPAHL, 0.781 ± 0.045.
For LGAHLSTAPPPP, the protein stability index worked out at 0.655 ± 0.022.
Then LGDVRRENKQLP, with 0.6981 ± 0.003; and LGFVGVRSVRSG, with 0.667 ± 0.059; and LGGGGPSVREGE, with 0.679 ± 0.05.
To LGGGGVGGVRGV belongs 0.6675 ± 0.0046; to LGGLLLCLGLSG, 0.674 ± 0.058.
Then LGGRGGACRRDR, with 0.7 ± 0.019.
LGHQFKGTILRV had a protein stability index of 0.73 ± 0.059.
Then LGKVAGLGAGRP, with 0.719 ± 0.034.
To LGPFTEAVSRHC belongs 0.67 ± 0.021; to LGQRFRLFVSFF, 0.468 ± 0.077.
Then LGRAGMWTRRGL, with 0.663 ± 0.034; and LGRCRQTERETS, with 0.649 ± 0.089; and LGRGRWSVLVVR, with 0.5287 ± 0.0014.
LGSFLPLLPSPP came in with a protein stability index of 0.674 ± 0.041.
To LGSGVQGEGRGW belongs 0.678 ± 0.042; to LGTVPLLPPRSP, 0.713 ± 0.028.
Then LGVIHPSVYFCL, with 0.5416 ± 0.0023; and LGVMLLEGWRVM, with 0.656 ± 0.018; and LGVPGSGDGEWW, with 0.592 ± 0.029.
Then LGVVSCAVVGFV, with 0.625 ± 0.041.
With LGWGGGGPLSGG, the protein stability index was 0.7197 ± 0.0054.
To LGWWWVWSWGRG belongs 0.668 ± 0.04; to LHGFYSKKAINR, 0.701 ± 0.031.
Then LHGLSGRLLFDV, with 0.574 ± 0.2; and LHHPPAPPLPPP, with 0.695 ± 0.018.

Values taken from the supplement of paper PMC10724198.
